Data on two molecules can be found in patent US9926375B2, “Anti-endoglin antibodies and uses thereof” (Tracon Pharmaceuticals, Inc., priority 2014, dated 2018).

The target of one data set is T1, human CD105 (Homo sapiens, UniProt P17813).
T1 construct: purchased R&D Systems 1097-EN
T1 sequence (P17813 26-586 limits assumed): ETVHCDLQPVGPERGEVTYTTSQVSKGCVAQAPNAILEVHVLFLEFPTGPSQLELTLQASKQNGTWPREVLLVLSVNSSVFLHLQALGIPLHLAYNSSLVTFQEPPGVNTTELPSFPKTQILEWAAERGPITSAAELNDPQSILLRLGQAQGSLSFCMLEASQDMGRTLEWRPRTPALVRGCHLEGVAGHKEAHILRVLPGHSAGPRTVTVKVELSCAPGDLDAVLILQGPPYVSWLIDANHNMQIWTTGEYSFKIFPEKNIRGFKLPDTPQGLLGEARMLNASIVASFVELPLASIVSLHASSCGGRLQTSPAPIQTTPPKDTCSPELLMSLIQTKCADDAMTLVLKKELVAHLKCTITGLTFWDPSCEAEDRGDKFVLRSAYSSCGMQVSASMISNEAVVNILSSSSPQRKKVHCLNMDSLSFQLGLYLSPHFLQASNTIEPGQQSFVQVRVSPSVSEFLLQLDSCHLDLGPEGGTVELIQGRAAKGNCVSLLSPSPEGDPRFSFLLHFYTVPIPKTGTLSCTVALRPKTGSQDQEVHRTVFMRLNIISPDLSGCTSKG
Briefly: Competition ELISA against biotinylated TRC205 antibody for binding to human CD105. The note with it: biotinylated TRC205 55 ng/ml. How it is done: After washing three times with PBST, a three-fold dilution series of either human BMP9 (R&D Systems Cat. No. 3209-BP-010) (413 nM to 0.56 nM), or unlabelled TRC205 antibody (40 nM to 0.05 nM) or a single concentration of an irrelevant antibody (66 nM) was mixed with a fixed concentration of biotinylated TRC205 antibody (55 ng/ml) and added to the plate. Following incubation for 1 hour at room temperature, the plate was washed three times with PBST and binding of the biotinylated TRC205 antibody was detected using streptavidin-HRP (Sigma Cat. No. 55512) and TMB substrate (Sigma Cat. No. T0440). OD450 nm values were measured on a Dynex MRX TCII plate reader.

The subject of data set [1] is peripheral blood mononuclear cells (PBMCs). Briefly: EpiScreen time course T cell proliferation assay with intact anti-endoglin antibodies. Conditions: of 20 donors; 50 μg/mL antibody; SI≥2 (borderline ≥1.90), p<0.05. Type of data set: cell-based, human. The text has this:
This example describes a method of screening anti-endoglin antibodies for T-cell epitopes. The interaction between MHC, polypeptide and T cell receptor (TCR) provides the structural basis for the antigen specificity of T cell recognition. T cell proliferation assays test the binding of polypeptides processed from antibodies to MHC and the recognition of MHC/polypeptide complexes by the TCR. In vitro T cell proliferation assays of the present example, involve the stimulation of peripheral blood mononuclear cells (PBMCs), containing antigen presenting cells (APCs) and T cells. Stimulation is conducted in vitro using intact anti-endoglin antibodies. Stimulated T cell proliferation is measured using ^3H-thymidine (^3H-Thy) and the presence of incorporated ^3H-Thymidine is assessed using scintillation counting of washed fixed cells.
Anti-endoglin antibodies were purified from the supernatants of mammalian cultures by protein A chromatography. Buffer exchange and protein concentration was done using PBS pH=7.4. Anti-endoglin antibody was further purified by size exclusion chromatography using a Sephacryl S200 column (GE Healthcare, AMersham, UK). The major peak is collected, filter sterilized and shown to have endotoxin levels <5 EU/mg using an Endosafe-PTS (Charles River, Margate, UK). The purified antibodies are stored at 4 degrees Celsius. Final concentrations were determined by UV absorption using calculated molar extinction coefficients, where A280 1.0=1.62 mg/mL. Each antibody was then diluted to 100 μg/mL in AIMV culture medium.
Peripheral Blood Mononuclear cells (PBMC) are isolated from healthy community donor buffy coats (from blood drawn within 24 hours) which are obtained from the UK National Blood Transfusion Service (Addenbrooke's Hospital, Cambridge, UK) according to approval granted by Addenbrooke's Hospital Local Research Ethics Committee. PBMC are isolated from buffy coats by Lymphoprep (Axis-shield, Dundee, Scotland) density centrifugation and CD8+ T cells are depleted using CD8+ RossetteSep™ (StemCell Technologies, Inc.). Donors are characterized by identifying HLA-DR haplotypes using a Biotest HLA SSP-PCR based tissue-typing kit (Biotest, Landsteinerstralβe, […]). T cell responses to a control antigen, Keyhole Limpet Haemocyanin (KLH) (Pierce, Rockford, Ill., USA) are determined for a positive control. PBMC were then frozen and stored in liquid nitrogen until required. When required for use, cells are thawed rapidly in a water bath at 37° C. before transferring to 10 ml pre-warmed AIM V medium.
A cohort of 20 donors is selected to best represent the number and frequency of HLA-DR allotypes expressed in the world population. […]
PBMCs from each donor are thawed, counted and viability assessed. […]

A further data set addresses T2, human endoglin (Homo sapiens, UniProt P17813).
T2 sequence (P17813 26-658): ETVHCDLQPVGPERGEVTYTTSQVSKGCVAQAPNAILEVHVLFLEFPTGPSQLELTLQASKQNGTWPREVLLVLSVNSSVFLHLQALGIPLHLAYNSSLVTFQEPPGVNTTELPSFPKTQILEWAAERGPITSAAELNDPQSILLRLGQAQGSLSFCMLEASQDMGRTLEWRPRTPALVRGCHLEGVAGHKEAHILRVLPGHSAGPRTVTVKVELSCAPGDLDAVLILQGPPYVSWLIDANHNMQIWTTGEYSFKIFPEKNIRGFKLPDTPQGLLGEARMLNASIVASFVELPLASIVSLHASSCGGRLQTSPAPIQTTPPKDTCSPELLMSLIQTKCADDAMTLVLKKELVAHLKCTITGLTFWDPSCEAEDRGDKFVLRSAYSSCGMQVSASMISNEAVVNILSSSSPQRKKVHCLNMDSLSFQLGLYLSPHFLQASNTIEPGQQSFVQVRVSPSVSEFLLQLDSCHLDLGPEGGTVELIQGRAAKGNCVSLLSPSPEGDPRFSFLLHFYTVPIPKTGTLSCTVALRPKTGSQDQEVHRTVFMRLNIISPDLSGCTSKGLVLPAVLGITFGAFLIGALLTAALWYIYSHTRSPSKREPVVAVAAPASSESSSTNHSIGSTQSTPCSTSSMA
Briefly: BIAcore (surface plasmon resonance) analysis of anti-endoglin antibody binding. Conditions: antibody captured on protein A chip, 25 degrees Celsius. How it is done:
Affinity of antibodies can be assessed using, for example, BIAcore analysis using standard protocols. Briefly, protein A is chemically coupled to a BIAcore CM5 chip, with the amount of protein A immobilized corresponding to 2000 RU. Subsequent steps are performed in a running buffer of 10 mM HEPES, 150 mM NaCl, 3 mM EDTA, 0.05% TWEEN, pH=7.4, at 25 degrees Celsius using a 10 Hz data collection rate. Anti-endoglin antibody (10 nM) is captured at a 10 μL/min flow rate by the immobilized protein A on the BIAcore chip: typically, capture times of 20, 40 and 80 seconds allow the capture of antibody densities corresponding to 130 RU, 330 RU and 570 RU, respectively. Start-up cycles are performed using running buffer at a flow rate of 40 μL/min, a contact time of 90 seconds and a dissociation time of 90 seconds. Sample cycles are performed using recombinant endoglin at concentrations ranging from 0 to 40 nM. Endoglin is passed over the BIAcore chip containing captured antibody at a flow rate of 40 μL/min with a contact time of 525 seconds and dissociation time of 2500 seconds. Eight sample cycles are typically performed at each antibody capture density. Regeneration of the chip is accomplished using 10 mM glycine pH=1.7. Data analysis is performed using BIAcore T100 Evaluation Software v1.1 Signals generated using BIAcore chips with different captured antibody densities are compared and data generated in the absence of recombinant endoglin are used to adjust for the intraassay blank signal. For fitting of the data, the Rmax is allowed to float to account for variation in capture levels of each antibody in each cycle. Data from each capture density is fitted simultaneously during analysis of each antibody. BIAcore data are presented in Table 2 for chimeric, humanized and deimmunized anti-endoglin antibodies, including ka (1/Ms), kd (1/s), KD (M) and Chi^2 (RU^2).
For orientation: In SPR one partner is held on a chip, and binding of the other changes the refractive index at the surface.

On to “BMP9: human BMP9 (R&D Systems Cat. No. 3209-BP-010), endoglin ligand [reference compound]”, for which, in the data set with human CD105, the “IC50 of competition with biotinylated TRC205 antibody” value was found to be 0.35 µg/mL.

B1: VK1AAVH1A2: humanized/deimmunized anti-endoglin IgG1; light chain SEQ ID NO: 93 (VK1AA), heavy chain SEQ ID NO: 89 (VH1A2) (antibody, V domains shown)
VH: EVQLVESGGGLVKPGGSLRLSCAASGFTFSDAWMDWVRQAPGKGLEWVGEARSKASNHATYYAESVKGRFTISRDDSKNTLYLQMNSLKTEDTAVYYCTRWRRFFDSWGQGTLVTVSS
VL: DIQMTQSPSSLSASVGDRATITCRASSSVSYMHWYQQKPGKAPKPWAYATSNLASGVPSRFSGSGSGTDYTLTISSLQPEDFATYYCQQWSSNPLTFGGGTKVEIK
Take B1: in data set [1], the “Donors with positive T cell proliferation responses” value is “none of the donors in the study cohort responded positively”. In the data set with human endoglin, this molecule yielded a ka of 46000 M⁻¹ s⁻¹ and a kd of 3.25e-05 s⁻¹.
